Laboratory results reported in patent US20250382602.
Numbering of substitutions follows the chain as printed.

Tests used:
Details in all cases: nanopore translocation, FLO-MIN112; background mutations not given
[1] = target: T1, Dda 1993 351Q 351Q (Enterobacteria phage T4) (UniProt P32270)
T1 sequence: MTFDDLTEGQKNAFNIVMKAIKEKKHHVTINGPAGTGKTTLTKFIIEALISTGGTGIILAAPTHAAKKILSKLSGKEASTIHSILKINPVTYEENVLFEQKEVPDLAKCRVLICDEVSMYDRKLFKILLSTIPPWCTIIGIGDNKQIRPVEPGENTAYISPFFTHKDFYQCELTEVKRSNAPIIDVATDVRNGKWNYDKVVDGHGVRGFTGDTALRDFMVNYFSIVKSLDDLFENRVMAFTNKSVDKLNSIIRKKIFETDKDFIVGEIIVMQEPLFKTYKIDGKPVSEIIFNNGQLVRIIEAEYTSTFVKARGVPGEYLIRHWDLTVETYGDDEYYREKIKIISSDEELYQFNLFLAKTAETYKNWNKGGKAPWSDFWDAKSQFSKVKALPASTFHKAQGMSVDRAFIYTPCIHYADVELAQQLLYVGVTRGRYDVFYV

[2] = target: T2, Dda 1993 K358M K358M (Enterobacteria phage T4) (UniProt P32270)
T2 sequence: T1 sequence with Q351K, K358M

[3] = target: T3, Dda 1993 K358F K358F (Enterobacteria phage T4) (UniProt P32270)
T3 sequence: T1 sequence with Q351K, K358F

[4] = target: T4, Dda 1993 K358I K358I (Enterobacteria phage T4) (UniProt P32270)
T4 sequence: T1 sequence with Q351K, K358I

[5] = target: T5, Dda 1993 K358S K358S (Enterobacteria phage T4) (UniProt P32270)
T5 sequence: T1 sequence with Q351K, K358S

[6] = target: T6, Dda 1993 354A 354A (Enterobacteria phage T4) (UniProt P32270)
T6 sequence: T1 sequence with Q351K, L354A

Q: “barcoded 3.6 kb DNA analyte ligated to sequencing Y adaptor” was tested. Which activity (bps speed delta vs control) [1] did it give?
A: -5.61

Q: And the activity (bps speed delta vs control) [2]?
A: -11.8

Q: What about the activity (bps speed delta vs control) [3] of the same substance?
A: -10.9

Q: What about the activity (bps speed delta vs control) [4] of the same substance?
A: -5.51

Q: What about the activity (bps speed delta vs control) [5] of the same substance?
A: 1.6

Q: And the activity (bps speed delta vs control) [6]?
A: 11.3
